In patent US20120149881A1 (Genentech, published 2012):
Numbering of substitutions follows the chain as printed. Several values for one entry are separate records, joined by “and”; a condition that tells them apart may be missing. Identical values can stand only once.

T1: M1′ peptide 8 (human)
T1 peptide: PRAAGGSVPHPRCH

T2: M1′ peptide 7 (human)
T2 peptide: GQQQGLPRAAGGSVP

T3: cyno IgE/M1′ expressed on transduced Daudi cells (human IgE/primate M1′ cassette, cynomolgus) (cynomolgus monkey)
T3 construct: The construct is described as a 'human IgE/primate M1′ cassette'; also called Cyno M1′
T3 chain: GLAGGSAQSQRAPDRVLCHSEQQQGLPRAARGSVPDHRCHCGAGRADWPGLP

T4: rhesus IgE/M1′ expressed on transduced Daudi cells (human IgE/primate M1′ cassette, rhesus) (rhesus monkey)
T4 construct: The construct is described as a 'human IgE/primate M1′ cassette'; also called Rhesus M1′
T4 chain: T3 chain with R38H

T5: M1′ peptide 4 (human)
T5 peptide: SAQSQRAPDRVLCHS

B1: murine anti-IgE/M1′ antibody 26A11 (antibody, V domains shown)
VH: EVQLQQSGPELVKPGASVKMSCKASGYTFTDYYMMWVKQSHGKSLEWIGDINPNNYDTSYNQKFKGKATLTVDKSSSTAYIQLNSLTSEDSAVYYCASKAYWGQGTLVTVSA
VL: DIQMTQTTSSLSASLGDRVTITCRSSQDISNSLNWYQQKPDGPVKLLIYSTSRLHSGVPSRFSGSGSGTDYSLTISNLEQEDLATYFCQQGHTLPWTFGGGTKVEIKR
notes: mIgG1 hybridoma antibody; also called mu26A11; 26A11 mIgG1
B2: murine anti-IgE/M1′ antibody 47H4 (antibody, V domains shown)
VH: EVKLVESGGGLVQPGGSRKLSCAASGFTFSDYGMAWVRQAPGKGPEWVAFISDLAYTIYYADTVTGRFTISRENAKNTLYLEMSSLRSEDTALYYCARDNWDAMDYWGQGTSVTVSS
VL: DIVLTQTPLSLPVSLGDQASISCRSSQSLVHNNGNTYLHWYLQKPGQSPKLLIYKVSNRFSGVPDRFSGSGSGTDFTLKISRLEAEDLGVYFCSQNTLVPWTFGGGTKVEIKR
notes: mIgG1 hybridoma antibody; also called mu47H4; 47H4 mIgG1

Columns and labels:
[1] = target: T6, human IgE CH3-CH4-M1′/Fc fusion protein (human); assay: SPR Biacore A100, M1′ immobilized
T6 construct: also called M1′ (immobilized)

[2] = target: T7, human IgE with the M1′ sequence (long form of membrane IgE) expressed on transduced BJAB or Daudi cells (human, UniProt P01854 116-546); assay: Scatchard, iodinated antibody on IgE/M1′ cells
T7 construct: Full-length heavy and light chains of the U266 IgE B cell receptor, retrovirally expressed; also called IgE/M1′; IgE-M1′

[3] = target: T7, human IgE with the M1′ sequence (long …); assay: Scatchard analysis on cells expressing human IgE/M1′
Protocol: (§1) The BJAB or Daudi cells expressing various forms of IgE with or without M1′ (Human, Rhesus, Cyno) were prepared for binding in cold Binding buffer composed of base media, with 10 mM HEPES pH 7.4, and 2% FBS as well as 40 ug/ml human IgG. Cells are diluted to concentration of 1.7×10⁶ cells/ml, and kept on ice until they are added to the assay. The proteins/antibodies are iodinated with the Iodogen method. Various concentrations of cold protein are prepared in triplicate, using a 1:2 dilution starting with the saturation concentration and ending at a concentration of zero, with a total of 14 concentrations. Hot protein of a single concentration is added to all dilutions compete with the cold protein. Lastly the cells are added to the hot and cold protein mixture, 250,000 cells per sample were used. Assay is kept at 4° C. for 4 hours, shaking. Each sample is then collected and filtered on membrane, washed at least 3 times with binding buffer, allowed to dry and then counted for 1 minute using Perkin Elmer Wizard 1470 Auto Gamma Counter.

[4] = target: T6, human IgE CH3-CH4-M1′/Fc fusion protein; assay: SPR Biacore 2000, IgG immobilized, M1′-Fc analyte
M1′ peptide 8 = target: T1, M1′ peptide 8; assay: ELISA on coated antigen, relative OD450/650
Protocol: (§2) 15 peptides were generated spanning the sequence surrounding and including human M1′ (Clifford Quan) (FIG. 5A). Peptides were resuspended in either dH20 or 50% DMSO. […] 0.05% Tween-20, 10 ppm Proclin., 0.2% BgG, 0.25% Chaps, 5 mM EDTA, 0.35M NaCl]. […] Plates were then incubated for 2 hours at room temperature. Murine antibody plates were washed 3 times and then anti-mouse IgG1-Biotin (BD Biosciences (A85-1) #553441) was added (1:10,000, 100 μl per well) and incubated for 1 hour at RT. Following 3 washes, SA-HRP (BD Biosciences #554066) was added (1:20,000, 100 μl per well) and incubated for 1 hour. Human IgG1 antibody plates were washed as before and anti-hulgG.Fc-HRP (Jackson ImmunoResearch (#109-036-098)) was added (1:10,000, 100 μl per well) and incubated for 1 hour at RT. Once secondary incubations were complete, plates were washed 6 times and TMB substrate (BD OptEIA #555214) was added (100 μl per well). The substrate-HRP reaction was stopped with 1M H3PO4 after ˜4 minutes. Plates were then read at 450/650. Data was represented as relative OD (OD₄₅₀/CD650).

M1′ peptide 7 = target: T2, M1′ peptide 7; assay: ELISA on coated antigen, relative OD450/650
Protocol: as §2

[5] = target: T7, human IgE with the M1′ sequence (long …); assay: Scatchard Human M1' (nM), column Mean of exp. 1
Protocol: In addition to relative affinity determinations by antibody titration and FACs detection, we also determined affinities of selected anti-MP antibodies to BJAB cell lines expressing IgE long form using Scatchard analysis. BJAB-Long cells were prepared for binding in cold Binding buffer composed of base media, with 10 mM HEPES pH 7.4, and 2% FBS as well as 40 μg/ml human IgG. Cells were diluted to a concentration of 1.7×10⁶ cells/ml, and kept on ice until added to the assay. The antibodies were iodinated with Iodogen method. Various concentrations of unlabelled antibody were prepared in triplicate, using a 1:2 dilution starting with the saturation concentration and ending at a concentration of zero, with a total of 14 concentrations. […] Each sample was then collected and filtered on a membrane, washed at least 3 times with binding buffer, allowed to dry and then measured for 1 minute using a Perkin Elmer Wizard 1470 Auto Gamma Counter.
The BJAB or Daudi cells expressing various forms of IgE with or without M1′ (Human, Rhesus, Cyno) were prepared for binding in cold Binding buffer composed of base media, with 10 mM HEPES pH 7.4, and 2% FBS as well as 40 ug/ml human IgG. […] Each sample is then collected and filtered on membrane, washed at least 3 times with binding buffer, allowed to dry and then counted for 1 minute using Perkin Elmer Wizard 1470 Auto Gamma Counter.

[6] = target: T7, human IgE with the M1′ sequence (long …); assay: Scatchard Human M1' (nM), column Mean of exp. 2
Protocol: as §1

[7] = target: T7, human IgE with the M1′ sequence (long …); assay: Scatchard Human M1' (nM), overall Mean of two experiments
Protocol: as §1

[8] = target: T7, human IgE with the M1′ sequence (long …); assay: competitive ECL binding on BJAB-IgE/M1′ cells vs biotinylated 26A11 or 47H4, 1st IC50 column
[9] = target: T7, human IgE with the M1′ sequence (long …); assay: Scatchard Human M1' (nM), column Measured; iodinated antibody on cells expressing human IgE/M1'
Protocol: as §1

[10] = target: T6, human IgE CH3-CH4-M1′/Fc fusion protein; assay: SPR Biacore 2000, M1′-Fc immobilized
[11] = target: T3, cyno IgE/M1′ expressed on transduced …; assay: Scatchard analysis on cells expressing cyno IgE/M1′
[12] = target: T4, rhesus IgE/M1′ expressed on transduced …; assay: Scatchard analysis on cells expressing rhesus IgE/M1′
M1′ peptide 4 = target: T5, M1′ peptide 4; assay: ELISA on coated antigen, relative OD450/650
Protocol: as §2

[13] = target: T7, human IgE with the M1′ sequence (long …); assay: Scatchard Human M1' (nM), column Mean of exp. 3
Protocol: as §1

[14] = target: T7, human IgE with the M1′ sequence (long …); assay: Scatchard Human M1' (nM), overall Mean of three experiments
Protocol: as §1

[15] = target: T7, human IgE with the M1′ sequence (long …); assay: competitive ECL binding on BJAB-IgE/M1′ cells vs biotinylated 26A11 or 47H4, 2nd IC50 column
[16] = target: T7, human IgE with the M1′ sequence (long …); assay: number printed in the titration panel; FIG. 3M calls these numbers 'Scatchard Results' (BJAB-Long cells)
Protocol: In addition to relative affinity determinations by antibody titration and FACs detection, we also determined affinities of selected anti-MP antibodies to BJAB cell lines expressing IgE long form using Scatchard analysis. BJAB-Long cells were prepared for binding in cold Binding buffer composed of base media, with 10 mM HEPES pH 7.4, and 2% FBS as well as 40 μg/ml human IgG. Cells were diluted to a concentration of 1.7×10⁶ cells/ml, and kept on ice until added to the assay. The antibodies were iodinated with Iodogen method. Various concentrations of unlabelled antibody were prepared in triplicate, using a 1:2 dilution starting with the saturation concentration and ending at a concentration of zero, with a total of 14 concentrations. Iodinated antibody of a single concentration was added to all dilutions of the competitor unlabelled antibody. Lastly 250,000 BJAB-Long cells were added to each mixture of iodinated and unlabelled antibody. The samples were incubated at 4° C. for 4 hours, shaking. Each sample was then collected and filtered on a membrane, washed at least 3 times with binding buffer, allowed to dry and then measured for 1 minute using a Perkin Elmer Wizard 1470 Auto Gamma Counter.

T7 sequence (P01854 116-546 I515L limits assumed): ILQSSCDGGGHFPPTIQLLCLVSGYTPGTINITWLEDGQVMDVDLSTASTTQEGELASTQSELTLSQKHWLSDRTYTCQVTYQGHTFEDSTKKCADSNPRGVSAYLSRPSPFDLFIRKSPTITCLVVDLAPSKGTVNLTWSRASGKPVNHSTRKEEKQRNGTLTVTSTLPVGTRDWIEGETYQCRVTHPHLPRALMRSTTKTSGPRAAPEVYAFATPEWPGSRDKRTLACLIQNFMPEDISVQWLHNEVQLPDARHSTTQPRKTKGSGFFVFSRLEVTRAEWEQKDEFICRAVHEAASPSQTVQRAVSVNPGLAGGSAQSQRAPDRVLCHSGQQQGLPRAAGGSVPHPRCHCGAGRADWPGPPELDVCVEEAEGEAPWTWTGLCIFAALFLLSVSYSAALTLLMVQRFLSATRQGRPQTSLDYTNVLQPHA
T6 sequence (chain, as listed by the source limits assumed): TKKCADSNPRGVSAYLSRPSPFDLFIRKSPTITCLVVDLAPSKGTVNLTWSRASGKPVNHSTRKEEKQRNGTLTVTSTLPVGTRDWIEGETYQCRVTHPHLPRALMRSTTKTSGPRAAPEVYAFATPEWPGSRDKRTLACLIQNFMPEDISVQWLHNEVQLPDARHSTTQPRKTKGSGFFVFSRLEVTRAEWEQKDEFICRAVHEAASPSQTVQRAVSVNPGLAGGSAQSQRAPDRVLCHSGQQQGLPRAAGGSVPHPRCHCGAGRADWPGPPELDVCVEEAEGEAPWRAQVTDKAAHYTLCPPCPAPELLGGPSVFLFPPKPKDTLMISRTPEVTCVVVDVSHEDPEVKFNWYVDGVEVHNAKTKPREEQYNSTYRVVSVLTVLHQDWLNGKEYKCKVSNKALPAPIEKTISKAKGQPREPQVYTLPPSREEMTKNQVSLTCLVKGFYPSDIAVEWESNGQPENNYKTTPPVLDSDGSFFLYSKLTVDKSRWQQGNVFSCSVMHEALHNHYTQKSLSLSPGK

Row | Binder | Kd [1] [nM] | Kd [2] [nM] | Kd [3] [nM] | Kd [4] [nM] | binding result (M1′ peptide 8) | binding result (M1′ peptide 7) | Kd [5] [nM] | Kd [6] [nM] | Kd [7] [nM] | IC50 [8] [nM] | Kd [9] | Kd [10] [nM] | Kd [11] [nM] | Kd [12] [nM] | binding result (M1′ peptide 4) | Kd [13] [nM] | Kd [14] [nM] | IC50 [15] [nM] | Kd [16] [nM]
1 | B1 | 0.3 | 1.6 | 2.3 | 5.1 | binds | binds | 2.14 | 1.75 | 1.94 | 12 | 1.68 nM and 2.59 nM and 1.2 nM |  |  |  |  |  |  |  | 
2 | B2 | 5.6 | 0.4 | 0.79 | 1.5 |  |  |  | 0.54 |  | 62 |  | 12 | 0.97 | 0.77 | binds | 0.39 | 0.57 | 57 | 0.39
